This is an account of results in US20090104146A1.

The target in this assay is gp130/OSMRβ receptor complex (type II OSM receptor) on NHEK (human) (UniProt P40189). Description: cell-based or functional assay.
Sequence of gp130/OSMRβ receptor complex (type II OSM receptor) on NHEK (human) (P40189 23-918, chain 1 of 2): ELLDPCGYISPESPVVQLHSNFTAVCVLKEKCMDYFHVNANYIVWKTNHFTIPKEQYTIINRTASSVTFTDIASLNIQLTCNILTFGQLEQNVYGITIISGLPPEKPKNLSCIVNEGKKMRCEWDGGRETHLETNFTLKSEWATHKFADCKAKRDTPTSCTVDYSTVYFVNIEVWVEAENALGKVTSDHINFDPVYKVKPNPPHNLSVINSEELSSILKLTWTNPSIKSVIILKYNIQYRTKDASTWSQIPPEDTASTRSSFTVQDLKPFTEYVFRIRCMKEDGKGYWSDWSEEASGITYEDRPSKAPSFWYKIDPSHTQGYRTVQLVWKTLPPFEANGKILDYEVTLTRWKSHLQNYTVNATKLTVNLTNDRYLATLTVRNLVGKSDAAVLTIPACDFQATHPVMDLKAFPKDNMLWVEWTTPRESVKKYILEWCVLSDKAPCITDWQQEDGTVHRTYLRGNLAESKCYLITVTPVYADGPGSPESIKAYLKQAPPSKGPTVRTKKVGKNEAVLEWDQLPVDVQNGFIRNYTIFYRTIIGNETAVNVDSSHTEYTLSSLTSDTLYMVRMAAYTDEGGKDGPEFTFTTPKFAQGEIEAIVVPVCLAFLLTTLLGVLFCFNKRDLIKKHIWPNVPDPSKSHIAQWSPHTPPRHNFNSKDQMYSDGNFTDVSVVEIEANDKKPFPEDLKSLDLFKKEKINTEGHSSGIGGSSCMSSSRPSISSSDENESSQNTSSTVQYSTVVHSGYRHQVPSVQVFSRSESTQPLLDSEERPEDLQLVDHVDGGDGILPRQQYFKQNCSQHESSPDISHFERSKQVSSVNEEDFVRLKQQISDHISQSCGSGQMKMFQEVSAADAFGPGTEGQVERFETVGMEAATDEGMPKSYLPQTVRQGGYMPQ
Sequence of gp130/OSMRβ receptor complex (type II OSM receptor) on NHEK (human) (Q99650 28-979, chain 2 of 2, further chain): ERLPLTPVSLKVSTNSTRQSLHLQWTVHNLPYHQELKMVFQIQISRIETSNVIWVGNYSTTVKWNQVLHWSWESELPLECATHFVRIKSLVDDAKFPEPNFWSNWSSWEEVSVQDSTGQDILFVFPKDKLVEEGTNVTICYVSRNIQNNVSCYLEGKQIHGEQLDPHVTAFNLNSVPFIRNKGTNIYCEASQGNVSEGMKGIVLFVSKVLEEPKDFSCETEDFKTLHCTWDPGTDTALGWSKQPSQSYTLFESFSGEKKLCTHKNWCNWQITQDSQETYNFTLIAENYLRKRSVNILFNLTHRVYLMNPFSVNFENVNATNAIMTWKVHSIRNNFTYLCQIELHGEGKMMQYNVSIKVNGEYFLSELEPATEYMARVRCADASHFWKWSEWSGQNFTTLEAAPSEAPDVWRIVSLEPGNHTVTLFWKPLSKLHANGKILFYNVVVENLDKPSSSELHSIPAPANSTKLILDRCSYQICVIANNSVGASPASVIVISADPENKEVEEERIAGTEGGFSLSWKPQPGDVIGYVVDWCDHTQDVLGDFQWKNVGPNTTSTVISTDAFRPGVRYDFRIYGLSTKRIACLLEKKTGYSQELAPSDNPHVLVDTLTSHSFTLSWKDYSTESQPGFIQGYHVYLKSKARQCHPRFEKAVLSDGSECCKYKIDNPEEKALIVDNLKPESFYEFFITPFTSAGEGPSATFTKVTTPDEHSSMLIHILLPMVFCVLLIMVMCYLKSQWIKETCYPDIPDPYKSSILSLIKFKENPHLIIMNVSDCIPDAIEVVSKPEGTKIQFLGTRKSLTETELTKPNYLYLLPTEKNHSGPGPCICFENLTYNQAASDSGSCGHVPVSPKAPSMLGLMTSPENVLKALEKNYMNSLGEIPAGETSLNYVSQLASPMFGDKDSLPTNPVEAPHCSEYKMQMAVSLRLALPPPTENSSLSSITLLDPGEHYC

In the case of “Human recombinant oncostatin M (OSM) (from UniProt P13725 26-221) (ligand)”, the tyrosine phosphorylation of STAT3 in NHEK (Western blot) was 3 ng/mL.
